Laboratory results from patent US7662584, “Increased production of secreted proteins by recombinant eukaryotic cells” (Danisco US Inc.).

T1: HAC1-malE fusion (HAC1 DNA binding domain and leucine zipper fragment) (Trichoderma reesei, UniProt Q8TFF3 SEQ:84-203)
T1 chain: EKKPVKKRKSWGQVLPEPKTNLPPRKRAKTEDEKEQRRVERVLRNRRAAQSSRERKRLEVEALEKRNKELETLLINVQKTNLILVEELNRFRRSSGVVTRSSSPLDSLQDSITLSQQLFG


Legend:
Details in all cases: tags: N-terminal MBP (malE), pMAL-p2X, E. coli; label: 32P-dCTP Klenow fill-in
[1] = target: T1, HAC1-malE fusion (HAC1 DNA binding …); assay: EMSA; competed by excess unlabelled oligo; 10 mM MgCl2, 50 mM KCl, pH 6.9, poly(dIdC), 25 C
Procedure: (§1) FIG. 16 depicts bandshift experiments, where the binding of the malE-HAC1 fusion protein to the putative UPR element sequences found in *T. reesei* pdi1 and bip1 promoters was tested. The oligonucleotides used in the binding reactions are shown on the top. Lanes 1, 12 and 16, no protein; lanes 2, 4-7, 8-11. 13-15 and 17-19. malE-HAC1 fusion protein; lane 3. malE protein alone. The binding was competed with unlabelled oligonucleotides on lanes 5 (20× excess); lanes 6, 10, 14 and 18 (50× excess) and lanes 7, 11, 15, and 19 (200× excess). Alignment of the UPR element sequences that bind the HAC1-malE protein is shown below wherein the sequence of pdiUPREII is set forth in SEQ ID No: 61, the sequence of bipUPREI is set forth in SEQ ID No. 62, and the sequence of bipUPREII is set forth in SEQ ID No. 63.
(§2) The oligonucleotides used in binding reactions were annealed in the concentration of […] in 50 mM Tris, pH 8.0, 10 mM MgCl_2, 1 mM spermidine and 5 mM DTT by heating them at 65° C. for 10 minutes and letting them cool down to room temperature during 2 hours. The oligonucleotides were labelled by incubating 100 ng of the annealed oligonucleotide in 10 mM Tris, pH 8.0, 5 mM MgCl_2 with 20 μCi of ^32P-dCTP and 2.5 U Klenow polymerase (Boehringer Mannheim) at 37° C. for 30 minutes. […]

[2] = target: T1, HAC1-malE fusion (HAC1 DNA binding …); assay: EMSA; specific binding; 10 mM MgCl2, 50 mM KCl, pH 6.9, poly(dIdC), 25 C
Procedure: as §1
The oligonucleotides used in binding reactions were annealed in the concentration of […] in 50 mM Tris, pH 8.0, 10 mM MgCl_2, 1 mM spermidine and 5 mM DTT by heating them at 65° C. for 10 minutes and letting them cool down to room temperature during 2 hours. The oligonucleotides were labelled by incubating 100 ng of the annealed oligonucleotide in 10 mM Tris, pH 8.0, 5 mM MgCl_2 with 20 μCi of ^32P-dCTP and 2.5 U Klenow polymerase (Boehringer Mannheim) at 37° C. for 30 minutes. The binding reactions between the oligonucleotides having the putative UPR elements and the proteins were carried out with 0.5-2 μg of the HAC1-malE fusion protein or 2 μg of the malE protein and 1 ng of the annealed and labelled oligonucleotide in a mixture containing 20 mM HEPES, pH 6.9, 50 mM KCl, 10 mM MgCl_2, 0.25 mM EDTA, 0.5 mM DTT, 2% Ficoll, 5% glycerol and 100 μg/ml poly(dIdC) DNA. The competing oligonucleotides were used in 20-200 times excess of the labelled oligonucleotide. The binding eaction mixtures were incubated for 30 minutes at 25° C. and run in a 5% polyacrylamide gel with 10% glycerol in 12.5 mM Tris-borate, pH 8.3, 0.6 mM EDTA for three hours. The gel was dried on a filter paper and exposed onto an X-ray film.

[3] = target: T1, HAC1-malE fusion (HAC1 DNA binding …); assay: EMSA; no binding at all; 10 mM MgCl2, 50 mM KCl, pH 6.9, poly(dIdC), 25 C
Procedure: as §1, §2

Row | Binder | binding result [2] | also measured
1 | pdiUPREI+II (dsDNA) DNA 1: CGGCTGAACCAGCGCGGCAGCCAGATGTGGCCAAAGGG DNA 2: CCCTTTGGCCACATCTGGCTGCCGCGCTGGTTCAGCCG | – | binding result [1]: binds
2 | pdiUPREII (dsDNA) DNA 1: GGATCTTGCATAGCCAGATGTGGCCTCGATTGACT DNA 2: AGTCAATCGAGGCCACATCTGGCTATGCAAGATCC | binds | –
3 | bipUPREI (dsDNA) DNA 1: GGATTAGAAAACGCCAACGTGTCCATAACGGTC DNA 2: GACCGTTATGGACACGTTGGCGTTTTCTAATCC | binds | –
4 | bipUPREII (dsDNA) DNA 1: GGGCGTGGAGAAGCGAGAAGTGGCCTCTTCTTCTCC DNA 2: GGAGAAGAAGAGGCCACTTCTCGCTTCTCCACGCCC | binds | –
5 | pdiUPREI (dsDNA) DNA 1: GGTACCTGCTAACCAGCGCGGCATGATTCAAC DNA 2: GTTGAATCATGCCGCGCTGGTTAGCAGGTACC | – | binding result [3]: no binding
